# Laboratory results published in publication PMC6695792 (Molecules, 2019).
# No end group written: not given here.
# Target: hPD-L1 of the Cis-Bio HTRF assay kit (human, UniProt Q9NZQ7 19-238)
# Test: AlphaScreen or HTRF; Cis-Bio kit, 5 nM hPD-L1 and 50 nM hPD-1, 20 µL, dilution series of the inhibitor up to 5 mM, 2 h at room temperature, duplicates, normalized Hill fit
# Settings: both partners purified
binder,measurement,value
AUNP-12 peptide (also: bond at chain A 8 at chain B 7 to a chain's C-terminus via isopeptide) chain 1: SNTSESFKFRVTQLAPKAQIKE chain 2: SNTSESF,IC50,> 10 mM
